Test results as given in patent US20230279123A1 (REGENECORE BIOTECH, published 2023).
Numbering of substitutions follows the chain as printed.

Key:
IL-4Rα (on TF-1 cells) [1] = target: T1, IL-4Rα (on TF-1 cells) (UniProt P24394 26-825, limits assumed); assay: cell-based or functional assay
[2] = target: T2, IL-4Rα (receptor protein / antigen) (UniProt P24394 26-232, limits assumed); assay: BLI (Octet 96), antibody loaded on sensor, antigen in solution
T2 construct: also called IL-4 receptor subunit α
Method: (§1) Assay steps: Octet 96 and Data Acquisition software in the supporting computer were run. The bottom and sides of an acquisition probe were cleaned using a lens tissue with an appropriate amount of 75% ethanol, and the instrument was preheated for 15 min or more. Sensor pre-wetting: before the assay, the Sensor was soaked in the SD buffer for 10 min or more for later use. Then, the machine procedure was set according to: baseline→antibody→baseline→antigen binding→antigen dissociation→sensor regeneration for assay operation.

IL-4Rα (on TF-1 cells) [3] = target: T1, IL-4Rα (on TF-1 cells); assay: cell-based or functional assay; remark: listed apart in the source
IL-4Rα (on TF-1 cells) [4] = target: T1, IL-4Rα (on TF-1 cells); assay: cell-based or functional assay; remark: listed apart in the source
[5] = target: T2, IL-4Rα (receptor protein / antigen); assay: competition ELISA: IL-4Rα coated, biotin-IL-4 at EC80 mixed with antibody dilutions, OD450
Method: (§2) (3) A biotin-conjugated ligand protein (IL-4 or IL-5) was diluted to 2 times the EC80 concentration, and the antibody was diluted to 2 times the initial concentration, and 5-fold gradient dilution was carried out. The ligand protein, and the diluted antibody (dupilumab, 4E9V10-2B3V2, 4E9-V0 or 2B3 (SEQ ID NO. 25)) and hIgG respectively, were transferred at 1:1 into a new dispensing plate and mixed well.
(§3) (7) A stopping solution was added, and the values of samples in different wells were immediately read at the wavelength of 450 nm with a microplate reader and recorded as OD450. EC50 was calculated by plotting. 4E9-V0, non-humanized anti-[…] single domain antibody 2B3, dupilumab, reslizumab, and hIgG were used as controls, and the results are shown in Tables 6 and 7 and FIGS. 5 and 6, respectively.

IL-4Rα (on TF-1 cells) [6] = target: T1, IL-4Rα (on TF-1 cells); assay: cell-based or functional assay; remark: listed apart in the source
[7] = target: T2, IL-4Rα (receptor protein / antigen); assay: BLI (Octet 96), antibody loaded on sensor, antigen 200 nM and 2-fold dilutions in solution
Method: as §1

IL-5 [8] = target: T3, IL-5 (human, UniProt P05113 20-134); assay: cell-based or functional assay
IL-5 [9] = target: T3, IL-5; assay: competition ELISA: IL-5R coated, biotin-IL-5 at EC80 mixed with antibody dilutions, OD450
Method: as §2, §3

T3 sequence (P05113 20-134 limits assumed): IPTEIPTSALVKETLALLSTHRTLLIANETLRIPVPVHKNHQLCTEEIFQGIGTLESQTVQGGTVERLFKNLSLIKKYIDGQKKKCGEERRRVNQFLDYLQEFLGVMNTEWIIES

B1: humanized anti-IL-4Rα single domain antibody 4E9-V6 (VHH)
VHH: QVQLVESGGGLVQPGGSLRLSCAASGDFYCMAWFRQAPGKEREAVATIRSGGRSTYYADSVKGRFTISRDNSKNTLYLQMNSLKAEDTAVYYCAVGVDGNCRNYWGQGTLVTVSS
EC50 of neutralizing IL-4-induced TF-1 proliferation (IL-4Rα (on TF-1 cells) [1]): 0.000707 µM
Kd [2]: 0.00305 µM
koff [2]: 0.000506 s⁻¹
kon [2]: 166000 M⁻¹ s⁻¹
EC50 of neutralizing IL-13-induced TF-1 proliferation (IL-4Rα (on TF-1 cells) [3]): 0.000759 µM

B2: anti-IL-4Rα single domain antibody 4E9 (4E9-V0) (VHH)
VHH: B1 VHH with L11S, P14A, A44G, R69K, S72A, N74D, A85P, V90M, L110Q
notes: also called non-humanized antibody
EC50 of neutralizing IL-4-induced TF-1 cell proliferation (IL-4Rα (on TF-1 cells) [4]): 0.000281 µM
EC50 [5]: 0.00445 µM
EC50 of neutralizing IL-13-induced TF-1 cell proliferation (IL-4Rα (on TF-1 cells) [6]): 0.000229 µM

B3: humanized anti-IL-4Rα single domain antibody 4E9-V10 (VHH)
VHH: B1 VHH with T47A
Kd [7]: 0.00308 µM
EC50 of neutralizing IL-4-induced TF-1 proliferation (IL-4Rα (on TF-1 cells) [1]): 0.000271 µM
koff [2]: 0.000534 s⁻¹
kon [2]: 173000 M⁻¹ s⁻¹
EC50 of neutralizing IL-13-induced TF-1 proliferation (IL-4Rα (on TF-1 cells) [3]): 0.00018 µM

B4: humanized anti-IL-4Rα single domain antibody 4E9-V12 (VHH)
VHH: B1 VHH with Y57L
EC50 of neutralizing IL-4-induced TF-1 proliferation (IL-4Rα (on TF-1 cells) [1]): 0.00203 µM
Kd [2]: 0.0093 µM
koff [2]: 0.000268 s⁻¹
kon [2]: 28800 M⁻¹ s⁻¹
EC50 of neutralizing IL-13-induced TF-1 proliferation (IL-4Rα (on TF-1 cells) [3]): 0.00211 µM

B5: humanized anti-IL-4Rα single domain antibody 4E9-V13 (VHH)
VHH: B1 VHH with L76V
EC50 of neutralizing IL-4-induced TF-1 proliferation (IL-4Rα (on TF-1 cells) [1]): 0.00452 µM
Kd [2]: 0.00341 µM
koff [2]: 0.000565 s⁻¹
kon [2]: 166000 M⁻¹ s⁻¹
EC50 of neutralizing IL-13-induced TF-1 proliferation (IL-4Rα (on TF-1 cells) [3]): 0.0042 µM

B6: humanized anti-IL-4Rα single domain antibody 4E9-V11 (VHH)
VHH: QVQLVESGGGLVQPGGSLRLSCAASGDFYCMAWFRQAPGKEREAVAIRSGGRSTYYADSVKGRFTISRDNSKNTLYLQMNSLKAEDTAVYYCAVGVDGNCRNYWGQGTLVTVSS
EC50 of neutralizing IL-4-induced TF-1 proliferation (IL-4Rα (on TF-1 cells) [1]): 1880 µM

B7: humanized anti-IL-4Rα single domain antibody 4E9-V14 (VHH)
VHH: B1 VHH with K84R
EC50 of neutralizing IL-4-induced TF-1 proliferation (IL-4Rα (on TF-1 cells) [1]): 18600 µM

B8: humanized anti-IL-4Rα single domain antibody 4E9-V8 (VHH)
VHH: B1 VHH with A44R, T47K, Y57L
EC50 of neutralizing IL-4-induced TF-1 proliferation (IL-4Rα (on TF-1 cells) [1]): 0.00277 µM
EC50 of neutralizing IL-13-induced TF-1 proliferation (IL-4Rα (on TF-1 cells) [3]): 0.00311 µM

B9: humanized anti-IL-4Rα single domain antibody 4E9-V2 (VHH)
VHH: B1 VHH with M31L, A32G, K40Q, T47A, K84R
EC50 of neutralizing IL-4-induced TF-1 proliferation (IL-4Rα (on TF-1 cells) [1]): 0.0521 µM

B10: reslizumab (antibody, V domains shown)
VH: EVQLVESGGGLVQPGGSLRLSCAVSGLSLTSNSVNWIRQAPGKGLEWVGLIWSNGDTDYNSAIKSRFTISRDTSKSTVYLQMNSLRAEDTAVYYCAREYYGYFDYWGQGTLVTVSS
VL: DIQMTQSPSSLSASVGDRVTITCLASEGISSYLAWYQQKPGKAPKLLIYGANSLQTGVPSRFSGSGSATDYTLTISSLQPEDFATYYCQQSYKFPNTFGQGTKVEVK
EC50 of neutralizing IL-5-induced TF-1 cell proliferation (IL-5 [8]): 0.000122 µM
EC50 (IL-5 [9]): 0.00621 µM

B11: non-humanized anti-IL-5 single domain antibody 2B3 (VHH)
VHH: QVQLVESGGGSVQAGGSLRLSCAASGNTFSFSTYCMGWFRQSPGKEREGSLATIYDGSTAYAGSVKGRFTISVDNAKNILYLQMNNLKPEDTAMYYCAAAKYCMFWSDPSYWGQGTQVTVSS
EC50 of neutralizing IL-5-induced TF-1 cell proliferation (IL-5 [8]): 0.000336 µM
EC50 (IL-5 [9]): 0.00691 µM

B12: humanized anti-IL-4Rα single domain antibody 4E9-V3 (VHH)
VHH: B1 VHH with M31L, A32G, K40Q, T47A
EC50 of neutralizing IL-4-induced TF-1 proliferation (IL-4Rα (on TF-1 cells) [1]): 0.0138 µM

B13: humanized anti-IL-4Rα single domain antibody 4E9-V5 (VHH)
VHH: B1 VHH with M31L, A32G, K40Q, E41G, R42L, T47A, K84R, G99A
EC50 of neutralizing IL-4-induced TF-1 proliferation (IL-4Rα (on TF-1 cells) [1]): 0.000746 µM

B14: humanized anti-IL-4Rα single domain antibody 4E9-V7 (VHH)
VHH: B6 VHH with Y56L
EC50 of neutralizing IL-4-induced TF-1 proliferation (IL-4Rα (on TF-1 cells) [1]): 0.185 µM

B15: humanized anti-IL-4Rα single domain antibody 4E9-V9 (VHH)
VHH: B1 VHH with A44R
EC50 of neutralizing IL-4-induced TF-1 proliferation (IL-4Rα (on TF-1 cells) [1]): 0.000752 µM

B16: dupilumab (antibody, V domains shown)
VH: EVQLVESGGGLEQPGGSLRLSCAGSGFTFRDYAMTWVRQAPGKGLEWVSSISGSGGNTYYADSVKGRFTISRDNSKNTLYLQMNSLRAEDTAVYYCAKDRLSITIRPRYYGLDVWGQGTTVTVSS
VL: DIVMTQSPLSLPVTPGEPASISCRSSQSLLYSIGYNYLDWYLQKSGQSPQLLIYLGSNRASGVPDRFSGSGSGTDFTLKISRVEAEDVGFYYCMQALQTPYTFGQGTKLEIKR
EC50 [5]: 0.00432 µM
